The chains are these.
B1: glmS ribozyme (parent)
chain: AUAAAAGCGCCAGAACUACAGAAAUGUAGUUGACGAGGAGGAGGUUUAUCGAAUUUUCGGCGGAUGCCUCCAAA

± gives the standard error. Variants at the floor of the assay were thinned out.

What all share (conditions): with glucosamine-6-phosphate
Data set [1] covers variants of B1. As to the kind of experiment: self-cleavage kobs at 160 uM GlcN6P; higher = faster cleavage; RNA array. In outline:
(§1)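 Weighted Michaelis–Menten fits across concentrations supplied kcat and KM, based on kobs from one- or two-exponential decay fits to normalised per-tile medians. The data came from barcoded ribozyme variants transcribed in situ by E. coli RNA polymerase on sequenced MiSeq chips and tracked at 37 °C by a hybridised Cy3 probe. Glucosamine-6-phosphate (40 μM to 10 mM) in HEPES/KCl/Mg(OAc)2 buffer was flowed in.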

Data set [2] covers variants of B1. As to the kind of experiment: self-cleavage kobs at 640 uM GlcN6P; higher = faster cleavage; RNA array. In outline:
as §1

The variants in data set [3] derive from B1. The data set is described as follows: self-cleavage kobs at 2500 uM GlcN6P; higher = faster cleavage; RNA array. The essentials:
as §1

In data set [4] the parent is B1. As to the kind of experiment: self-cleavage kobs at 10000 uM GlcN6P; higher = faster cleavage; RNA array. The essentials:
as §1

Regarding C8U C16G G51U, the “self-cleavage kobs at 160 uM GlcN6P” value with glucosamine-6-phosphate [1] was less than 1e-05 s⁻¹. Besides, in the data set with glucosamine-6-phosphate [2], the “self-cleavage kobs at 640 uM GlcN6P” value was less than 1e-05 s⁻¹. The “self-cleavage kobs at 2500 uM GlcN6P” value in the data set with glucosamine-6-phosphate [3] was less than 1e-05 s⁻¹.
For G35A C50G G59C U65G, in the data set with glucosamine-6-phosphate [1], the “self-cleavage kobs at 160 uM GlcN6P” value came to 4.37e-05 ± 1.9e-05 s⁻¹. Further, the “self-cleavage kobs at 640 uM GlcN6P” value in the data set with glucosamine-6-phosphate [2] is less than 1e-05 s⁻¹.
Consider C11G G35A C58G, for which, in the data set with glucosamine-6-phosphate [1], the “self-cleavage kobs at 160 uM GlcN6P” value was less than 1e-05 s⁻¹. Besides, the “self-cleavage kobs at 640 uM GlcN6P” value with glucosamine-6-phosphate [2] was less than 1e-05 s⁻¹. The “self-cleavage kobs at 2500 uM GlcN6P” value with glucosamine-6-phosphate [3] was less than 1e-05 s⁻¹.
As for C10U G37A G63A, the “self-cleavage kobs at 160 uM GlcN6P” value with glucosamine-6-phosphate [1] was less than 1e-05 s⁻¹. Further, the “self-cleavage kobs at 640 uM GlcN6P” value with glucosamine-6-phosphate [2] is less than 1e-05 s⁻¹. For the same variant, the “self-cleavage kobs at 2500 uM GlcN6P” value with glucosamine-6-phosphate [3] is less than 1e-05 s⁻¹.
As to U30A G44C, the “self-cleavage kobs at 160 uM GlcN6P” value with glucosamine-6-phosphate [1] was less than 1e-05 s⁻¹.
Turning to C8A G13C U30C G41U, the “self-cleavage kobs at 160 uM GlcN6P” value in the data set with glucosamine-6-phosphate [1] was less than 1e-05 s⁻¹. In addition, the “self-cleavage kobs at 2500 uM GlcN6P” value with glucosamine-6-phosphate [3] is less than 1e-05 s⁻¹. In addition, the “self-cleavage kobs at 10000 uM GlcN6P” value with glucosamine-6-phosphate [4] is less than 1e-05 s⁻¹.
G43A U49C G66A C70G: the “self-cleavage kobs at 160 uM GlcN6P” value in the data set with glucosamine-6-phosphate [1] was less than 1e-05 s⁻¹. The “self-cleavage kobs at 640 uM GlcN6P” value in the data set with glucosamine-6-phosphate [2] is less than 1e-05 s⁻¹. Moreover, in the data set with glucosamine-6-phosphate [3], the “self-cleavage kobs at 2500 uM GlcN6P” value is less than 1e-05 s⁻¹.
Regarding G7C C68U, the “self-cleavage kobs at 160 uM GlcN6P” value with glucosamine-6-phosphate [1] is less than 1e-05 s⁻¹. For the same variant, the “self-cleavage kobs at 640 uM GlcN6P” value with glucosamine-6-phosphate [2] is less than 1e-05 s⁻¹. Further, the “self-cleavage kobs at 2500 uM GlcN6P” value with glucosamine-6-phosphate [3] was less than 1e-05 s⁻¹. The “self-cleavage kobs at 10000 uM GlcN6P” value with glucosamine-6-phosphate [4] was less than 1e-05 s⁻¹.
With G40A G51C, the “self-cleavage kobs at 160 uM GlcN6P” value with glucosamine-6-phosphate [1] was less than 1e-05 s⁻¹. In addition, the “self-cleavage kobs at 640 uM GlcN6P” value with glucosamine-6-phosphate [2] was less than 1e-05 s⁻¹. Moreover, the “self-cleavage kobs at 10000 uM GlcN6P” value with glucosamine-6-phosphate [4] is less than 1e-05 s⁻¹.
On to G9C U30G U45A, for which, in the data set with glucosamine-6-phosphate [1], the “self-cleavage kobs at 160 uM GlcN6P” value is less than 1e-05 s⁻¹.
For the variant C8G G63A C70G, the “self-cleavage kobs at 160 uM GlcN6P” value with glucosamine-6-phosphate [1] is less than 1e-05 s⁻¹. The “self-cleavage kobs at 640 uM GlcN6P” value with glucosamine-6-phosphate [2] is less than 1e-05 s⁻¹. Further, the “self-cleavage kobs at 2500 uM GlcN6P” value with glucosamine-6-phosphate [3] was less than 1e-05 s⁻¹.
On to C8U G35U G62C, for which, in the data set with glucosamine-6-phosphate [1], the “self-cleavage kobs at 160 uM GlcN6P” value was less than 1e-05 s⁻¹. In the data set with glucosamine-6-phosphate [2], the “self-cleavage kobs at 640 uM GlcN6P” value is less than 1e-05 s⁻¹. For the same variant, the “self-cleavage kobs at 2500 uM GlcN6P” value with glucosamine-6-phosphate [3] is less than 1e-05 s⁻¹.
G7U A12U U45G: in the data set with glucosamine-6-phosphate [1], the “self-cleavage kobs at 160 uM GlcN6P” value is less than 1e-05 s⁻¹. Besides, the “self-cleavage kobs at 640 uM GlcN6P” value with glucosamine-6-phosphate [2] is less than 1e-05 s⁻¹. In addition, the “self-cleavage kobs at 2500 uM GlcN6P” value with glucosamine-6-phosphate [3] was less than 1e-05 s⁻¹.
For the variant A14G U56A C67A, the “self-cleavage kobs at 160 uM GlcN6P” value in the data set with glucosamine-6-phosphate [1] was 0.00127 ± 0.00033 s⁻¹. Also, the “self-cleavage kobs at 640 uM GlcN6P” value with glucosamine-6-phosphate [2] was found to be 0.00567 ± 0.0018 s⁻¹. The “self-cleavage kobs at 2500 uM GlcN6P” value with glucosamine-6-phosphate [3] came out at 0.00817 ± 0.0024 s⁻¹.
On the same counts, the results for U45C C50G G51A A53U G60C are less than 1e-05 s⁻¹, less than 1e-05 s⁻¹ and less than 1e-05 s⁻¹.
A12G A52U G66U: the “self-cleavage kobs at 160 uM GlcN6P” value with glucosamine-6-phosphate [1] is less than 1e-05 s⁻¹. In the data set with glucosamine-6-phosphate [2], the “self-cleavage kobs at 640 uM GlcN6P” value was less than 1e-05 s⁻¹.
On to C8A A12U C16G G41A C68A, for which the “self-cleavage kobs at 160 uM GlcN6P” value with glucosamine-6-phosphate [1] is less than 1e-05 s⁻¹. Moreover, the “self-cleavage kobs at 640 uM GlcN6P” value with glucosamine-6-phosphate [2] is less than 1e-05 s⁻¹. Moreover, the “self-cleavage kobs at 2500 uM GlcN6P” value in the data set with glucosamine-6-phosphate [3] is less than 1e-05 s⁻¹.
Regarding C16U G41C G43C A48U U57C, the “self-cleavage kobs at 160 uM GlcN6P” value with glucosamine-6-phosphate [1] was less than 1e-05 s⁻¹. Moreover, in the data set with glucosamine-6-phosphate [3], the “self-cleavage kobs at 2500 uM GlcN6P” value is less than 1e-05 s⁻¹.
Turning to G9U G40U U46G G62C, the “self-cleavage kobs at 160 uM GlcN6P” value with glucosamine-6-phosphate [1] was less than 1e-05 s⁻¹. In addition, the “self-cleavage kobs at 640 uM GlcN6P” value in the data set with glucosamine-6-phosphate [2] is less than 1e-05 s⁻¹. Also, the “self-cleavage kobs at 2500 uM GlcN6P” value in the data set with glucosamine-6-phosphate [3] was less than 1e-05 s⁻¹.
As for C11A G43U U49C C61A G63C, the “self-cleavage kobs at 160 uM GlcN6P” value with glucosamine-6-phosphate [1] was less than 1e-05 s⁻¹. For the same variant, in the data set with glucosamine-6-phosphate [3], the “self-cleavage kobs at 2500 uM GlcN6P” value is less than 1e-05 s⁻¹.
Take C16U U55G U69G: the “self-cleavage kobs at 160 uM GlcN6P” value with glucosamine-6-phosphate [1] came out at 9.72e-05 ± 2.1e-05 s⁻¹. In addition, the “self-cleavage kobs at 640 uM GlcN6P” value in the data set with glucosamine-6-phosphate [2] was determined as 8.62e-05 ± 2.4e-05 s⁻¹. In the data set with glucosamine-6-phosphate [3], the “self-cleavage kobs at 2500 uM GlcN6P” value came to 5.05e-05 ± 1.1e-05 s⁻¹. For the same variant, the “self-cleavage kobs at 10000 uM GlcN6P” value in the data set with glucosamine-6-phosphate [4] was 4.21e-05 ± 1.4e-05 s⁻¹.
A33C C34G: the “self-cleavage kobs at 160 uM GlcN6P” value with glucosamine-6-phosphate [1] was less than 1e-05 s⁻¹.
With U54A G59A C71A, the “self-cleavage kobs at 160 uM GlcN6P” value with glucosamine-6-phosphate [1] is less than 1e-05 s⁻¹. Also, in the data set with glucosamine-6-phosphate [2], the “self-cleavage kobs at 640 uM GlcN6P” value was less than 1e-05 s⁻¹.
